From patent publication US20190269786A1 (published 2019)
Like-named read-outs stand apart in the source and are kept apart here.

Tests used:
[1] = target: T1, folate receptor 1 (FOLR1) (human, UniProt P15328 25-234); assay: flow cytometry binding on T47D cells
[2] = target: T1, folate receptor 1 (FOLR1); assay: flow cytometry binding on T47D cells; remark: listed apart in the source

T1 sequence (P15328 25-234): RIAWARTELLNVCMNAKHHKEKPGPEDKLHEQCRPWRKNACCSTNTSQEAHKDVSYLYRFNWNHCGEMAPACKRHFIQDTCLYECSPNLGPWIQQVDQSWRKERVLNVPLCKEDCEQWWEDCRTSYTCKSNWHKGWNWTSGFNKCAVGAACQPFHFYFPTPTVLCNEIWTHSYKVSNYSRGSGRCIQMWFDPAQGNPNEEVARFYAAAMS

EC50 [1]: 0.144 nM
EC50 [2]: 0.314 nM
B1: huMOV19 antibody (antibody, V domains shown)
VH: QVQLVQSGAEVVKPGASVKISCKASGYTFTGYFMNWVKQSPGQSLEWIGRIHPYDGDTFYNQKFQGKATLTVDKSSNTAHMELLSLTSEDFAVYYCTRYDGSRAMDYWGQGTTVTVSS
VL: DIVLTQSPLSLAVSLGQPAIISCKASQSVSFAGTSLMHWYHQKPGQQPRLLIYRASNLEAGVPDRFSGSGSKTDFTLTISPVEAEDAATYYCQQSREYPYTFGGGTKLEIKR
